We go through two molecules from US20200392203A1 (YEDA RESEARCH AND DEVELOPMENT, published 2020).

The target of experiment [1] is native spike complex (glycoprotein complex, GPC) of Junin virus (JUNV) (Junin virus (JUNV)).
The target in experiment [2] is native spike complex (glycoprotein complex, GPC) of Sabia virus (SABV) (Sabia virus (SABV)).
The target in experiment [3] is GP1WWAV-Fc (GP1 domain of Whitewater Arroyo virus fused at its C' terminus to an antibody Fc portion) (Whitewater Arroyo virus (WWAV)) (UniProt Q911P0). Kind of experiment: SPR (Biacore T200), single cycle kinetics; […]; 1:1 model.
Chain of GP1WWAV-Fc (GP1 domain of Whitewater Arroyo virus fused at its C' terminus to an antibody Fc portion) (Whitewater Arroyo virus (WWAV)) (Q911P0 87-241): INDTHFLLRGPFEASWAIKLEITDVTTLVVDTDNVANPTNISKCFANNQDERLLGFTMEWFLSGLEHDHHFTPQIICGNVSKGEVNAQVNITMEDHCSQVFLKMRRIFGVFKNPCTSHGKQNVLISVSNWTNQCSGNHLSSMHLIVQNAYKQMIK
For experiment [4], the target named is GP1GTOV-Fc (GP1 domain of Guanarito virus fused at its C' terminus to an antibody Fc portion) (Guanarito virus (GTOV)) (UniProt Q8AYW1). The experiment is described as follows: SPR (Biacore T200), single-cycle kinetics; […]; 1:1 model fit. Background: In SPR one partner is held on a chip, and binding of the other changes the refractive index at the surface.
Chain of GP1GTOV-Fc (GP1 domain of Guanarito virus fused at its C' terminus to an antibody Fc portion) (Guanarito virus (GTOV)) (Q8AYW1 87-240): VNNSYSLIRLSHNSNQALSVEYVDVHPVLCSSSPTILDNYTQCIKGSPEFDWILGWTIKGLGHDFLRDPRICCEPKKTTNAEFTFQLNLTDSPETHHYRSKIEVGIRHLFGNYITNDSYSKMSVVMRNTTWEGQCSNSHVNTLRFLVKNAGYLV

Chain of native spike complex (glycoprotein complex, GPC) of Sabia virus (SABV) (Sabia virus (SABV)) (Q90037 2-58, chain 1 of 3): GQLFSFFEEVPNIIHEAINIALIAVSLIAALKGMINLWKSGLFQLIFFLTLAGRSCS
Chain of native spike complex (glycoprotein complex, GPC) of Sabia virus (SABV) (Sabia virus (SABV)) (Q90037 59-254, chain 2 of 3): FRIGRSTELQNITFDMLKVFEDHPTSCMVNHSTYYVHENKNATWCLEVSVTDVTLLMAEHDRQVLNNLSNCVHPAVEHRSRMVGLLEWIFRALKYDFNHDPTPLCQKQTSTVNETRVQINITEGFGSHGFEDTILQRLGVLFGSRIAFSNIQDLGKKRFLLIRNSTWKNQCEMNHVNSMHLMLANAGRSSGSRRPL
Chain of native spike complex (glycoprotein complex, GPC) of Sabia virus (SABV) (Sabia virus (SABV)) (Q90037 255-488, chain 3 of 3): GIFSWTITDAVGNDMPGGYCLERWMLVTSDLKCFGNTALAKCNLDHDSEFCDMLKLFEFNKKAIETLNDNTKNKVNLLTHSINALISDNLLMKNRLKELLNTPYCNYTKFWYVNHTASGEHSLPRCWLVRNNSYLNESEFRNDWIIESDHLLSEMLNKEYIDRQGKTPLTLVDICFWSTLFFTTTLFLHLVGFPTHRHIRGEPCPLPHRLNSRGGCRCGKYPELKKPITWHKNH
Chain of native spike complex (glycoprotein complex, GPC) of Junin virus (JUNV) (Junin virus (JUNV)) (P26313 2-58 limits assumed, chain 1 of 3): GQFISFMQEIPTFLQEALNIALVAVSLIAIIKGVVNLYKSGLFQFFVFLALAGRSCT
Chain of native spike complex (glycoprotein complex, GPC) of Junin virus (JUNV) (Junin virus (JUNV)) (P26313 59-251 limits assumed, chain 2 of 3): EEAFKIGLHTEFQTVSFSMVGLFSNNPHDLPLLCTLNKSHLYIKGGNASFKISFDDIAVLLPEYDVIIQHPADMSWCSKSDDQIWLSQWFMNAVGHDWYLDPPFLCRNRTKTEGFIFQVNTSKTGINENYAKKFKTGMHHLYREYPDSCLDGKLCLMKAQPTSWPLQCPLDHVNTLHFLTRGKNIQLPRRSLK
Chain of native spike complex (glycoprotein complex, GPC) of Junin virus (JUNV) (Junin virus (JUNV)) (P26313 252-485 limits assumed, chain 3 of 3): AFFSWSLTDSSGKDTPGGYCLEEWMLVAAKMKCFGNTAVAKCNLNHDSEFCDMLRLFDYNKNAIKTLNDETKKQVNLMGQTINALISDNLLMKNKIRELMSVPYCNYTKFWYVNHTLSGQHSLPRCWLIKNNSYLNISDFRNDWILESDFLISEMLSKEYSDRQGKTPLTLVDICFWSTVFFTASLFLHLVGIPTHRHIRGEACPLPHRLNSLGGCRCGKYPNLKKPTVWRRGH

With “Arenacept (sAD fused at its C'-terminus to an Fc portion of IgG1) (Fc fusion)”, the pseudovirus neutralisation (luciferase, hTfR1-overexpressing HEK293 cells), IC50 came out at 1.5 µg/mL in experiment [1] and 3.5 µg/mL in experiment [2].

B1: soluble apical domain (sAD) of Neotoma albigula (White-throated woodrat) TfR1 (receptor)
chain: GSKIQVKCSAPNSVTITNASGGLYLVEYPEGYVAYSKATEVTGKLVHANFGTKKDFEDLDYAVNGSIVIVRAGKITIAEKVANAQSFNAIGVLIYKDRTKYPISRADEPLQGHSGLPSIPVQTISREAAEKLFQNMERDCPRSWNTDSSCKLELLQNRNVKLTVNNCLKE
Consider B1, for which the equilibrium dissociation constant (Kd) (usually the constant that tells how readily two partners part at equilibrium) in experiment [3] amounted to 1000 nM; in experiment [4] it was 360 nM.
